Laboratory results from patent publication US20230372448A1, “THERAPEUTIC USE OF LONG-ACTING CONJUGATE OF TRIPLE AGONIST ACTING ON ALL OF GLUCAGON, GLP-1 AND GIP RECEPTORS AGAINST MULTIPLE SCLEROSIS” (HANMI PHARM. CO. ,LTD., priority 2020, published 2023).
Positions of bridges follow the written chain, without caps; N, C: chain ends. Non-standard residues stand in square brackets, D forms with d. No end group written: not given here. *: point of attachment. Acetyl(2-(4-imidazolyl)) = O=C(Cc1c[nH]cn1)*; Aib = CC(C)(N)C(=O)O

T1: human GIP receptor (human, UniProt P48546 22-466)
T1 sequence (looked up): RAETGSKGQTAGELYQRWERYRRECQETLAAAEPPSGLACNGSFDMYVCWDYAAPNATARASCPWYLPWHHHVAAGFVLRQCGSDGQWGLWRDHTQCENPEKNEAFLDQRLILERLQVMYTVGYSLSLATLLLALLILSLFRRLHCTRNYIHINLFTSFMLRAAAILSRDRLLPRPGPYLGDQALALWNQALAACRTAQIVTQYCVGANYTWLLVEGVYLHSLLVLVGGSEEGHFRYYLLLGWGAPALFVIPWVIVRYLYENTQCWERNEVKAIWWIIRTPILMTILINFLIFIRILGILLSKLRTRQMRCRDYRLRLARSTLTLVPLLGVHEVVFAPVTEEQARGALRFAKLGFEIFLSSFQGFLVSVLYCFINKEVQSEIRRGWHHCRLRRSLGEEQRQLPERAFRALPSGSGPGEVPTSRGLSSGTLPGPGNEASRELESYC


Tests used:
Assay in all cases: cell-based or functional assay
human GIP receptor = molecular target: T1, human GIP receptor
human GCG receptor = human GCG receptor (human, UniProt P47871 26-477)
human GLP-1 receptor = human GLP-1 receptor (human, UniProt P43220 24-463)

human GCG receptor, sequence (P47871 26-477): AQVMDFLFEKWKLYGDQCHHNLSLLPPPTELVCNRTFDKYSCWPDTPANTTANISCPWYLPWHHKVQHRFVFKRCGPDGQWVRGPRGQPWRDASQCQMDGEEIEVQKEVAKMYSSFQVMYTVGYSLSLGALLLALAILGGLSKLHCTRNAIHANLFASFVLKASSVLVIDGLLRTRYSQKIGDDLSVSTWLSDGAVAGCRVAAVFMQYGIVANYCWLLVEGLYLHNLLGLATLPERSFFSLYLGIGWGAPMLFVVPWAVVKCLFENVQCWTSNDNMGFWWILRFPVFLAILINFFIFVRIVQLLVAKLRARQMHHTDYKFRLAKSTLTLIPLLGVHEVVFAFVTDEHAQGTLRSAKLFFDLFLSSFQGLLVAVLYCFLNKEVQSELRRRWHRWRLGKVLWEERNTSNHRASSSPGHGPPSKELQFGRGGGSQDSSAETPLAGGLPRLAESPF

Binder	In vitro activity (%) compared with native peptide: vs GIP (human GIP receptor)	In vitro activity (%) compared with native peptide: vs Glucagon (human GCG receptor)	In vitro activity (%) compared with native peptide: vs GLP-1 (human GLP-1 receptor)
H[Aib]QGTFTSDYSIAMDEIHQKDFVNWLLNTKC (bridge 16-20; not fully specified) [triple agonist of SEQ ID NO: 35]	1.3%	< 0.1%	7.5%
H[Aib]QGTFTSDKSKYLDERACQDFVQWLLDGGPSSGAPPPS (not fully specified) [triple agonist of SEQ ID NO: 40]	< 0.1%	< 0.1%	75.2%
H[Aib]QGTFTSDYSKYLDEKRQKEFVNWLLAQKC (bridge 16-20; not fully specified) [triple agonist of SEQ ID NO: 34]	0.6%	0.92%	19.1%
{Acetyl(2-(4-imidazolyl))}-[Aib]QGTFTSDKSSYLDERAAQDFVQWLLDGGPSSGAPPPSS (not fully specified; also: ring from underlined residues, positions not shown) [triple agonist of SEQ ID NO: 38]	–	–	2.3%
Y[Aib]QGTFTSDYSKYLDEKRAKEFVQWLLDHHCSSGQPPPS (bridge 16-20; not fully specified) [triple agonist of SEQ ID NO: 43]	3.7%	88.4%	12.6%
H[Aib]QGTFTSDVSSYLLGQQQKEFIAWLVKGC (not fully specified) [triple agonist of SEQ ID NO: 4]	< 0.1%	< 0.1%	8.5%
H[Aib]QGTFTSDYSKYLDGQHAQCFVAWLLAGGGPSSGAPPPS (also: ring from underlined residues, positions not shown) [triple agonist of SEQ ID NO: 39]	< 0.1%	0.53%	13.9%
H[Aib]QGTFTSDYSKYLDECRQKEFVQWLLNGGPSSGAPPPSG (bridge 16-20) [triple agonist of SEQ ID NO: 37]	2.2%	6.21%	236%
H[Aib]QGTFTSDKSKYLDECAAQDFVQWLLDGGPSSGAPPPS (not fully specified) [triple agonist of SEQ ID NO: 41]	< 0.1%	< 0.1%	34.3%
H[Aib]QGTFTSDVSSYLDGQAAKEFIAWLVKGC (not fully specified) [triple agonist of SEQ ID NO: 1]	< 0.1%	< 0.1%	3.2%
H[Aib]QGTFTSDYSKYLCEKRQKEFVQWLLNGGPSSGAPPPSG (bridge 16-20) [triple agonist of SEQ ID NO: 36]	0.2%	0.39%	37.4%
Y[Aib]QGTFTSDYSKYLDEKRAKEFVQWLLDHHPSSGQPPPSC (bridge 16-20; not fully specified) [triple agonist of SEQ ID NO: 42]	7.8%	206%	33.9%
